The text below walks through data of the Immune Epitope Database (IEDB).

Bounds are passed on as bounds.

Experiment [1] addresses HLA-B*07:02. Nature of the experiment: IEDB peptide-MHC binding, purified MHC/competitive/fluorescence; ≥ and ≤ were set here for values at or beyond the usual limits of such assays. The following applies: source organism: Zaire ebolavirus.
Experiment [2] deals with HLA-A*02:01. The description is as above. As to conditions: source organism: Zaire ebolavirus.
In the next experiment the target is HLA-A*24:02. The experiment is described as above. The following applies: source organism: Zaire ebolavirus.
Experiment [3] concerns the target HLA-B*15:01. The experiment is described as above. The following applies: source organism: Zaire ebolavirus.
The next experiment has as its target HLA-A*69:01. Nature of the experiment: IEDB peptide-MHC binding, purified MHC/competitive/fluorescence; filed as Kd, often an IC50 or EC50 that approximates it; ≥ and ≤ were set here for values at or beyond the usual limits of such assays.
For experiment [4], the target named is HLA-B*57:01. The experiment is described as above.
Experiment [5] has as its target HLA-A*02:01. Described as above.
A further experiment concerns the target HLA-A*02:19. The experiment is described as above.
For another experiment, the target named is HLA-B*27:03. Described as above.
In the next experiment the target is HLA-A*02:16. The description is as above.
The target in the next experiment is HLA-B*39:01. Described as above.
In experiment [6] the target is HLA-B*18:01. The description is as above.
In a further experiment the target is HLA-A*02:03. The experiment is described as above.
A further experiment addresses HLA-B*15:17. Described as above. The following applies: source organism: Vibrio vulnificus YJ016.
The target in experiment [7] is HLA-A*68:02. The description is as above.
In another experiment the target is HLA-B*51:01. Described as above.
The next experiment addresses HLA-A*02:12. The description is as above.
In experiment [8] the target is HLA-A*03:01. Described as above.
The target in a further experiment is HLA-A*02:11. The experiment is described as above.
The target in experiment [9] is HLA-B*46:01. The description is as above.
In experiment [10] the target is HLA-A*26:01. The description is as above.
Experiment [11] deals with HLA-B*15:01. The experiment is described as above.
For experiment [12], the target named is HLA-B*18:01. The experiment in a line: IEDB peptide-MHC binding, purified MHC/direct/fluorescence; filed as Kd, often an IC50 or EC50 that approximates it; ≥ and ≤ were set here for values at or beyond the usual limits of such assays. As to conditions: source organism: Zaire ebolavirus.
In experiment [13] the target is HLA-B*07:02. Described as above. The following applies: source organism: Zaire ebolavirus.
For the next experiment, the target named is HLA-A*01:01. The description is as above. The following applies: source organism: Zaire ebolavirus.
A further experiment addresses HLA-B*44:02. The experiment is described as above. As to conditions: source organism: Zaire ebolavirus.
For experiment [14], the target named is HLA-A*68:02. The description is as above. As to conditions: source organism: Zaire ebolavirus.
For experiment [15], the target named is HLA-B*57:01. The description is as above. As to conditions: source organism: Zaire ebolavirus.
Experiment [16] addresses HLA-A*03:01. The experiment is described as above. The following applies: source organism: Zaire ebolavirus.
Experiment [17] addresses HLA-B*08:01. Described as above. The following applies: source organism: Zaire ebolavirus.
Experiment [18] deals with HLA-A*29:02. The experiment is described as above. As to conditions: source organism: Zaire ebolavirus.
Experiment [19] has as its target HLA-B*46:01. The experiment is described as above. The following applies: source organism: Zaire ebolavirus.
The next experiment has as its target HLA-A*23:01. The description is as above. As to conditions: source organism: Zaire ebolavirus.
A further experiment addresses HLA-B*27:05. Described as above. As to conditions: source organism: Zaire ebolavirus.
The target of another experiment is HLA-A*11:01. The description is as above. The following applies: source organism: Zaire ebolavirus.
Experiment [20] concerns the target HLA-B*08:01. Nature of the experiment: IEDB peptide-MHC binding, purified MHC/competitive/fluorescence; ≥ and ≤ were set here for values at or beyond the usual limits of such assays. As to conditions: source organism: Zaire ebolavirus.
A further experiment concerns the target HLA-A*26:02. The experiment in a line: IEDB peptide-MHC binding, purified MHC/direct/fluorescence; filed as Kd, often an IC50 or EC50 that approximates it; ≥ and ≤ were set here for values at or beyond the usual limits of such assays. The following applies: source organism: Influenza B virus (B/Beijing/184/93).
Experiment [21] addresses HLA-A*26:01. Described as above. As to conditions: source organism: Influenza A virus (A/goose/Hong Kong/8/1976(H1N1)).
Experiment [22] addresses HLA-A*29:02. Nature of the experiment: IEDB peptide-MHC binding, purified MHC/competitive/fluorescence; filed as Kd, often an IC50 or EC50 that approximates it; ≥ and ≤ were set here for values at or beyond the usual limits of such assays. The following applies: source organism: Entamoeba histolytica HM-1:IMSS.
Setting [23] is: source organism: Cryptosporidium parvum Iowa II.
Setting [24] is: source organism: Vibrio vulnificus YJ016.
Setting [25] is: source organism: Zaire ebolavirus.
The mark [26] stands for this setting: source organism: Entamoeba histolytica HM-1:IMSS.
[27] abbreviates: source organism: Campylobacter jejuni subsp. jejuni NCTC 11168 = ATCC 700819.

By IC50 is commonly meant the midpoint of a concentration-inhibition curve. A lower IC50 goes with inhibition by little substance. Consider AAVSHLTTL, for which the IC50 was 21.7 µM with HLA-B*07:02 [1], 1.05 µM with HLA-A*02:01 [2], 2.25 µM in the experiment with HLA-A*24:02 and 16.5 µM with HLA-B*15:01 [3].
Broadly, the Kd is the concentration at which binding is half-saturated. Read a low Kd as tighter binding. Consider FLYPSWSLY, for which the Kd was at least 20 µM with HLA-A*69:01 (setting [23]); at least 20 µM with HLA-B*57:01 [4] (setting [23]); 0.169 µM with HLA-A*02:01 [5] (setting [23]); at least 20 µM with HLA-A*02:19 (setting [23]); at least 20 µM in the experiment with HLA-B*27:03 (setting [23]); 0.101 µM with HLA-A*02:16 (setting [23]). The same sequence gave a dissociation constant (Kd) with HLA-B*39:01 (setting [23]) of at least 20 µM.
In the case of DFISMYFPW, the dissociation constant Kd was 0.946 µM with HLA-B*18:01 [6] (setting [24]); at least 20 µM in the experiment with HLA-A*02:03 (setting [24]); at least 20 µM with HLA-B*15:17; at least 20 µM with HLA-A*68:02 [7] (setting [24]); at least 20 µM in the experiment with HLA-A*69:01 (setting [24]); at least 20 µM in the experiment with HLA-B*51:01 (setting [24]). The Kd with HLA-B*57:01 [4] (setting [24]), in the experiment with HLA-A*02:12 (setting [24]), in the experiment with HLA-A*02:01 [5] (setting [24]), with HLA-A*03:01 [8] (setting [24]), with HLA-A*02:11 (setting [24]) and with HLA-B*46:01 [9] (setting [24]) was at least 20 µM in each case. Also, the Kd with HLA-A*02:19 (setting [24]), in the experiment with HLA-B*27:03 (setting [24]), with HLA-A*02:16 (setting [24]), in the experiment with HLA-A*26:01 [10] (setting [24]), in the experiment with HLA-B*39:01 (setting [24]) and in the experiment with HLA-B*15:01 [11] (setting [24]) was at least 20 µM in each case.
As to RLAKLTEAI, the Kd in the experiment with HLA-A*69:01 (setting [25]), in the experiment with HLA-B*27:03 (setting [25]), with HLA-A*26:01 [10] (setting [25]), with HLA-B*39:01 (setting [25]), with HLA-B*18:01 [12] and with HLA-B*07:02 [13] was at least 20 µM throughout. For the same sequence, the Kd with HLA-A*01:01 is at least 20 µM; with HLA-B*44:02, at least 20 µM; in the experiment with HLA-A*68:02 [14], at least 20 µM; with HLA-B*57:01 [15], at least 20 µM; with HLA-A*03:01 [16] it was at least 20 µM; in the experiment with HLA-B*08:01 [17], 13.3 µM. The dissociation constant Kd in the experiment with HLA-A*29:02 [18], with HLA-B*46:01 [19], in the experiment with HLA-A*23:01, in the experiment with HLA-B*27:05 and with HLA-A*11:01 was at least 20 µM each time. The half-inhibitory concentration (IC50) is at least 217 µM with HLA-B*07:02 [1]; 14.9 µM in the experiment with HLA-A*02:01 [2]; at least 182 µM with HLA-B*08:01 [20]; 1.43 µM in the experiment with HLA-A*24:02; 48 µM with HLA-B*15:01 [3].
Turning to RRTRREAIV, the values for the half-maximal inhibitory concentration (IC50) in the experiment with HLA-B*07:02 [1], with HLA-A*02:01 [2] and with HLA-A*24:02 were 37.7 µM, at least 5060 µM and 63.3 µM, respectively.
On to LSPGMMMGM, for which the results for the Kd in the experiment with HLA-A*26:02 and with HLA-A*26:01 [21] were 0.319 µM and at least 20 µM, respectively.
For ENTNTSKST, the half-maximal inhibitory concentration (IC50) with HLA-B*07:02 [1] is at least 200 µM.
Regarding KTRMEDYYL, the Kd in the experiment with HLA-B*18:01 [6] (setting [26]) was at least 20 µM; with HLA-A*02:03 (setting [26]) it was at least 20 µM; in the experiment with HLA-B*51:01 (setting [26]), at least 20 µM; with HLA-B*57:01 [4] (setting [26]) it was 0.151 µM; with HLA-A*02:12 (setting [26]) it was at least 20 µM; with HLA-A*02:01 [5] (setting [26]), at least 20 µM. Further, the dissociation constant (Kd) with HLA-A*03:01 [8] (setting [26]), with HLA-A*29:02 [22], in the experiment with HLA-B*46:01 [9] (setting [26]), with HLA-A*02:19 (setting [26]), with HLA-B*27:03 (setting [26]) and with HLA-A*26:01 [10] (setting [26]) was at least 20 µM in each case. The dissociation constant Kd with HLA-B*39:01 (setting [26]) and with HLA-B*15:01 [11] (setting [26]) was at least 20 µM each time.
For AELIDSFTW, the dissociation constant (Kd) in the experiment with HLA-B*18:01 [6] (setting [27]) was 0.462 µM; with HLA-A*02:03 (setting [27]), at least 20 µM; in the experiment with HLA-A*68:02 [7] (setting [27]), at least 20 µM; with HLA-A*69:01 (setting [27]), at least 20 µM; in the experiment with HLA-B*51:01 (setting [27]), at least 20 µM; in the experiment with HLA-B*57:01 [4] (setting [27]), at least 20 µM. Besides, the Kd with HLA-A*02:12 (setting [27]), with HLA-A*02:01 [5] (setting [27]), in the experiment with HLA-A*03:01 [8] (setting [27]), in the experiment with HLA-A*02:11 (setting [27]), in the experiment with HLA-B*46:01 [9] (setting [27]) and with HLA-A*02:19 (setting [27]) was at least 20 µM in each case. Besides, the Kd with HLA-B*27:03 (setting [27]), with HLA-A*02:16 (setting [27]), in the experiment with HLA-A*26:01 [10] (setting [27]), with HLA-B*39:01 (setting [27]) and with HLA-B*15:01 [11] (setting [27]) was at least 20 µM each time.
